The values below are quoted from earlier work in publication PMC2656815.

pKd: −log10 of the molar value.

This data set concerns the target CRF1 receptor N-domain (Homo sapiens) (UniProt P34998).
UniProt P34998, sequence (P34998 24-119): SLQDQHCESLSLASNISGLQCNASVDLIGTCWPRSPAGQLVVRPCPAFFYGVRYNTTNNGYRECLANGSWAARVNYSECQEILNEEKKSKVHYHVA

CRF (from UniProt P06850): the negative-log Kd (pKd) was 7.30.

For orientation: pKd means the Kd on a negative log10 scale, so that one unit is a factor of ten.
